According to patent publication US20200339670A1 (published 2020):

B1: recombinant mutant ASC specks (recASC; K21A, K22A and K26A) in the ASC-PYD domain (other)
chain: MGRARDAILDALENLTAEELAAFKLALLSVPLREGYGRIPRGALLSMDALDLTDKLVSFYLETYGAELTANVLRDMGLQEMAGQLQAATHQGSGAAPAGIQAPPQSAAKPGLHFIDQHRAALIARVTNVEWLLDALYGKVLTDEQYQAVRAEPTNPSKMRKLFSFTPAWNWTCKDLLLQALRESQSYLVEDLERS
notes: Made and prepared as the wild-type recombinant protein; also called recASC K21A, K22A, K26A; ASC-PYD mutant; not shown: TEV protease cleavage site; mCherry; C-terminal hexa-histidine tag from pET-23a
B2: ASC specks released by immunostimulated wild-type primary murine microglia or murine macrophages (other, UniProt Q9EPB4 1-193, looked up)
chain: MGRARDAILDALENLSGDELKKFKMKLLTVQLREGYGRIPRGALLQMDAIDLTDKLVSYYLESYGLELTMTVLRDMGLQELAEQLQTTKEESGAVAAAASVPAQSTARTGHFVDQHRQALIARVTEVDGVLDALHGSVLTEGQYQAVRAETTSQDKMRKLFSFVPSWNLTCKDSLLQALKEIHPYLVMDLEQS
notes: Endogenous protein in cell-free supernatants; aggregated (speck) form; also called Microglia released ASC specks

Assays:
[1] = molecular target: the molecule itself; experiment: immunoblot for ASC over incubation time (self-association)
TAMRA-labelled Aβ1-42 = molecular target: T1, TAMRA-labelled Aβ1-42 (UniProt P05067 672-713, TAMRA label (position not given)); experiment: flow cytometry of supernatants of immunostimulated primary microglia incubated with Aβ1-42
T1 construct: domain: Aβ1-42; also called TAMRA-Aβ1-42; TAMRA-Aβ
T1 sequence (P05067 672-713 limits assumed): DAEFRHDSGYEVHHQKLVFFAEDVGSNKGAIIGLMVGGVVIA
Procedure: Supernatants containing ASC specks were subsequently incubated with Aβ₁₋₄₂ for 6 h and thereafter analyzed by flow cytometry. (b) Upper panel: Immunoprecipitation and immunoblot detection of ASC in unstimulated, immunoactivated wildtype (wt) and ASC knockout (ASC^{-/-}) macrophages. ASC monomer detection is restricted to supernatants of immunoactivated, ASC-competent wt cells and absent in unstimulated wt cells or ASC^{-/-} macrophages. Lower panel: Immunoprecipitation of ASC followed by immunoblot detection of Aβ under the same experimental conditions as described for the upper panel. ASC bound Aβ is exclusively detected in supernatants derived from immunoactivated wt macrophages but not from unstimulated wt or ASC^{-/-} cells. (c) Upper panel: Immunoprecipitation of ASC and immunoblot detection of ASC in unstimulated, immunoactivated wt and ASC^{-/-} microglia. ASC monomer detection is restricted to supernatants of immunoactivated ASC competent wt cells and absent in unstimulated wt cells or ASC^{-/-} macrophages. […] ASC bound Aβ is exclusively detected in supernatants derived from immunoactivated wt microglia but not from unstimulated wt or ASC^{-/-} cells. […] (f) Flow cytometry quantification of ASC-TAMRA-labelled […] after immunostimulation of microglia. […]

Binder	binding result [1]	binding result (TAMRA-labelled Aβ1-42)
B1	no binding	–
B2	–	binds
